Assays:
[1] = molecular target: T1, canine CD20 ECD2-mFc fusion protein (canine); assay: ELISA, antigen coated at 200 ng/well, antibody 5 ug/ml
T1 construct: also called cCD20 ECD2-mFc
T1 chain: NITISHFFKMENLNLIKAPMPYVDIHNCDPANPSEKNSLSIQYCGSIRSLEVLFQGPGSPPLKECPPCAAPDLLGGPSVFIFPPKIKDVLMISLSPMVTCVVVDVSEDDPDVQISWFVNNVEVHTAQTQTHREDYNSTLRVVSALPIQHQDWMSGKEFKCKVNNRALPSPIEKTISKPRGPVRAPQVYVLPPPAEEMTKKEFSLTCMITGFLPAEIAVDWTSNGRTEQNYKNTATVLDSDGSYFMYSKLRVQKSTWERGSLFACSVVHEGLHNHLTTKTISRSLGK
Procedure: (§1) This strategy- enabled identification of the specific sequences in canine CD20 that each mAb binds. Binding was tested using a standard ELISA protocol. Briefly, recombinant canine CD20 ECD2-mFc fusion protein and human/canine hybrid variants thereof were diluted in PBS and bound to a 96-well microtiter plate at 200 ng/well by overnight incubation at 4° C. The plate was rinsed three times with PBST buffer, blocked with a solution of 3% BSA in PBS for one hour at 37° C., then rinsed once with PBST. Mouse monoclonal antibodies 1E4, 1G1, and 1G10 were diluted to a concentration of 5 μg/ml in PBS and 50 μl of this dilution was applied to the plate for 1 hour at room temperature. The plate was then rinsed three times with PBST, and Jackson Immunoresearch goat anti-mouse-IgG light chain-specific HRP conjugate (#115-035-174) diluted to 1:5000 in PBS (50 μL) was added to each well, and the plate was incubated for 45 min at room temperature. The plate was washed three times with PBST, then 100 μl of SureBlueTMB substrate (KPL #52-00-03) was added to each well and the plate was incubated for about 10 min at room temperature. The plate was read at 650 nm in a spectrophotometer.

[2] = molecular target: T2, Hum-Can CD20 ECD2 V3 (mFc fusion) (human/canine hybrid); assay: as above
T2 construct: Described as a hybrid version of the original immunogen CD20 ECD2-mFc
T2 chain: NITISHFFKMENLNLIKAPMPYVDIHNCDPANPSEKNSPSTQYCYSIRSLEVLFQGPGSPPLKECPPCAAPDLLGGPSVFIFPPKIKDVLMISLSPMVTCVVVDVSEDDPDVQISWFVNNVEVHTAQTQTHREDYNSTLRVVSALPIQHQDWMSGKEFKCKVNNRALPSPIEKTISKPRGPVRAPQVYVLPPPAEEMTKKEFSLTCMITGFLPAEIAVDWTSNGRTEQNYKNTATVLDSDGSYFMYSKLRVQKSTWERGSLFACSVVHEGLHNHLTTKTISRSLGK
Procedure: as §1

[3] = molecular target: T3, canine CD20 on canine B cells / B cell lymphoma cells (canine, UniProt Q3C2E2 1-297); assay: FACS on canine B cell lymphoma cells expressing canine CD20
T3 construct: whole, on cells; Endogenous CD20 on canine cells
T3 sequence (looked up): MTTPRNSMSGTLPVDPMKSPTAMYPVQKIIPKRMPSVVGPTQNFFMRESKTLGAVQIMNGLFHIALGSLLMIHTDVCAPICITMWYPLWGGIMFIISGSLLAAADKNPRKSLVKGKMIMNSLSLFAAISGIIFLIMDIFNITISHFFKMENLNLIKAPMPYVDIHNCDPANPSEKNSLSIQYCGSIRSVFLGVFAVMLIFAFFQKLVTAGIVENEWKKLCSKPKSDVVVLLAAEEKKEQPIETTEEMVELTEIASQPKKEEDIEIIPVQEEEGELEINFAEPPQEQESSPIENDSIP
Procedure: The relative affinities of the mouse monoclonal antibodies 1E4, 1G1, and 1G10 for binding to canine CD20 was determined by fluorescent activated cell sorting (FACS) using canine B cell lymphoma cells, which express canine CD20.

[4] = molecular target: T4, Hum-Can CD20 ECD2 V2 (mFc fusion) (human/canine hybrid); assay: ELISA, antigen coated at 200 ng/well, antibody 5 ug/ml
T4 construct: Described as a hybrid version of the original immunogen CD20 ECD2-mFc
T4 chain: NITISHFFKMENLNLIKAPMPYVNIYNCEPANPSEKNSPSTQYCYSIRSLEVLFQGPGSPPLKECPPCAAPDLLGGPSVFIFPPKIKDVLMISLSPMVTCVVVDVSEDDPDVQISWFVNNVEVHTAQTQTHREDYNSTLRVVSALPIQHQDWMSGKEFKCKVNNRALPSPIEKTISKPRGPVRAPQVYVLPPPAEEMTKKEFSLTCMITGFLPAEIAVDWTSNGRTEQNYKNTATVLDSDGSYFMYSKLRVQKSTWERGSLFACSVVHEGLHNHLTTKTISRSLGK
Procedure: as §1

[5] = molecular target: T5, Hum-Can CD20 ECD2 V4 (mFc fusion) (human/canine hybrid); assay: as above
T5 construct: Described as a hybrid version of the original immunogen CD20 ECD2-mFc
T5 chain: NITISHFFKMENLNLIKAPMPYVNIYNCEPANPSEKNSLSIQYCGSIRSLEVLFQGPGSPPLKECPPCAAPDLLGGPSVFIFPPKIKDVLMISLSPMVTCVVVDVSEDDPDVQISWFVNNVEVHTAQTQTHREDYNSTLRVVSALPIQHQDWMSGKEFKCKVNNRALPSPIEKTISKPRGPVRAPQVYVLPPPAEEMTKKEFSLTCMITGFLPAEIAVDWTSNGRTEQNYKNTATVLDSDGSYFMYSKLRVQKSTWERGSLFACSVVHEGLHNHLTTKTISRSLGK
Procedure: as §1

canine CD20 ECD2 peptide [6] = molecular target: T6, canine CD20 ECD2 peptide (canine); assay: ELISA on canine CD20 ECD2 peptide (FIG. 5)
T6 peptide: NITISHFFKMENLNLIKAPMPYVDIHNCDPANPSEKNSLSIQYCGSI

canine CD20 ECD2 peptide [7] = molecular target: T6, canine CD20 ECD2 peptide; assay: ELISA on canine CD20 ECD2 peptide

B1: mouse monoclonal antibody 1G10 (antibody, V domains shown)
VH: EVQLQQSGPELVKPGASVKISCKASGYTFTDYYMNWVKQSHGKSLEWIGDINPNNGDTSYNQKFKGKAPLTVDKSSSTAYMEVRSLTSEDSAVYFCARGGVLRYPYYYVMDYWGQGTSVTVSS
VL: DIVMTQAAPSVPVTPGESVSISCRSNKSLLHRNGNTYLYWFLQRPGQSPQLLIYRMSNLASGVPDRFSGSGSGTAFTLRISRVEAEDVGVYYCMQHLEFPFTFGGGTKLEIK
notes: Mouse monoclonal antibody from a hybridoma; also called hybridoma antibody 1G10
With B1 the binding result [1] was “binds”, the binding result [2] was “binds” and the Kd [3] was 0.29 nM.

B2: mouse monoclonal antibody 1G1 (antibody, V domains shown)
VH: EVQLQQSGAELVRPGASVKLSCTASGFNIKDDYMHWVKQRPEQGLEWIGWIDPENGHTKYASKFQGKATITADTSSNTAYLQLSSLTSEDTAVYYCTSLRHYYGSSYVSPHYYWGQGTTLTVSS
VL: DIVMTQSQKFMSRSVGDRVSVTCKASQNVGPNVAWYQQRPGQSPKPLIYSASYRYSGVPDRFTGSGSGTDFTLTISNVQSEDLAEYFCQQYNNYPYTFGGGTKLEIK
notes: Mouse monoclonal antibody from a hybridoma; also called hybridoma antibody 1G1
B2: binds [1]; binds [4]; binds [2]. The binding result [5] was “binds” and the Kd [3] was 19.8 nM.

B3: 1E4-cIgGB with G34 to A substitution in VL (antibody, V domains shown)
VH: EVQLVESGGGLVKPGGSLKLSCAASGFTFSDYGMLWVRQAPEKGLEWIAYISSGSSTIYYADRVKGRFTISRDNAKNTLFLQMTSLRSEDTAMYYCSTGTFAYWGQGTPVTVSS
VL: DVVMTQNPLSLPVSLGDQASISCRSSQSLIYNNANTYLHWYRQKPGQSPKLLIYKVSNRFSGVPDRFSGSGSGTDFTLKISRVEAEDLGVYFCSQSTHVPFTFGSGTKLEIKR
notes: also called G34A
B3: binds (canine CD20 ECD2 peptide [6]).

B4: 1E4-cIgGB with G34 to K substitution in VL (antibody, V domains shown)
VH: EVQLVESGGGLVKPGGSLKLSCAASGFTFSDYGMLWVRQAPEKGLEWIAYISSGSSTIYYADRVKGRFTISRDNAKNTLFLQMTSLRSEDTAMYYCSTGTFAYWGQGTPVTVSS
VL: DVVMTQNPLSLPVSLGDQASISCRSSQSLIYNNKNTYLHWYRQKPGQSPKLLIYKVSNRFSGVPDRFSGSGSGTDFTLKISRVEAEDLGVYFCSQSTHVPFTFGSGTKLEIKR
notes: also called G34K
B4: binds (canine CD20 ECD2 peptide [6]).

B5: 1E4-cIgGB with G34 to Q substitution in VL (antibody, V domains shown)
VH: EVQLVESGGGLVKPGGSLKLSCAASGFTFSDYGMLWVRQAPEKGLEWIAYISSGSSTIYYADRVKGRFTISRDNAKNTLFLQMTSLRSEDTAMYYCSTGTFAYWGQGTPVTVSS
VL: DVVMTQNPLSLPVSLGDQASISCRSSQSLIYNNQNTYLHWYRQKPGQSPKLLIYKVSNRFSGVPDRFSGSGSGTDFTLKISRVEAEDLGVYFCSQSTHVPFTFGSGTKLEIKR
notes: also called G34Q
B5: binds (canine CD20 ECD2 peptide [6]).

B6: 1E4-cIgGB with N33 to K substitution in VL (antibody, V domains shown)
VH: EVQLVESGGGLVKPGGSLKLSCAASGFTFSDYGMLWVRQAPEKGLEWIAYISSGSSTIYYADRVKGRFTISRDNAKNTLFLQMTSLRSEDTAMYYCSTGTFAYWGQGTPVTVSS
VL: DVVMTQNPLSLPVSLGDQASISCRSSQSLIYNKGNTYLHWYRQKPGQSPKLLIYKVSNRFSGVPDRFSGSGSGTDFTLKISRVEAEDLGVYFCSQSTHVPFTFGSGTKLEIKR
notes: also called N33K
B6: binds (canine CD20 ECD2 peptide [6]).

B7: 1E4-cIgGB with N33 to P substitution in VL (antibody, V domains shown)
VH: EVQLVESGGGLVKPGGSLKLSCAASGFTFSDYGMLWVRQAPEKGLEWIAYISSGSSTIYYADRVKGRFTISRDNAKNTLFLQMTSLRSEDTAMYYCSTGTFAYWGQGTPVTVSS
VL: DVVMTQNPLSLPVSLGDQASISCRSSQSLIYNPGNTYLHWYRQKPGQSPKLLIYKVSNRFSGVPDRFSGSGSGTDFTLKISRVEAEDLGVYFCSQSTHVPFTFGSGTKLEIKR
notes: Whole antibody (heavy plus light chains) made 'using the above procedures'
B7: binds (canine CD20 ECD2 peptide [7]).

B8: 1E4-cIgGB with N33 to Q substitution in VL (antibody, V domains shown)
VH: EVQLVESGGGLVKPGGSLKLSCAASGFTFSDYGMLWVRQAPEKGLEWIAYISSGSSTIYYADRVKGRFTISRDNAKNTLFLQMTSLRSEDTAMYYCSTGTFAYWGQGTPVTVSS
VL: DVVMTQNPLSLPVSLGDQASISCRSSQSLIYNQGNTYLHWYRQKPGQSPKLLIYKVSNRFSGVPDRFSGSGSGTDFTLKISRVEAEDLGVYFCSQSTHVPFTFGSGTKLEIKR
notes: as for B7
B8: binds (canine CD20 ECD2 peptide [7]).

B9: 1E4-cIgGB with N33 to R substitution in VL (antibody, V domains shown)
VH: EVQLVESGGGLVKPGGSLKLSCAASGFTFSDYGMLWVRQAPEKGLEWIAYISSGSSTIYYADRVKGRFTISRDNAKNTLFLQMTSLRSEDTAMYYCSTGTFAYWGQGTPVTVSS
VL: DVVMTQNPLSLPVSLGDQASISCRSSQSLIYNRGNTYLHWYRQKPGQSPKLLIYKVSNRFSGVPDRFSGSGSGTDFTLKISRVEAEDLGVYFCSQSTHVPFTFGSGTKLEIKR
notes: as for B7
B9: binds (canine CD20 ECD2 peptide [7]).

B10: 1E4-cIgGB with N33 to T substitution in VL (antibody, V domains shown)
VH: EVQLVESGGGLVKPGGSLKLSCAASGFTFSDYGMLWVRQAPEKGLEWIAYISSGSSTIYYADRVKGRFTISRDNAKNTLFLQMTSLRSEDTAMYYCSTGTFAYWGQGTPVTVSS
VL: DVVMTQNPLSLPVSLGDQASISCRSSQSLIYNTGNTYLHWYRQKPGQSPKLLIYKVSNRFSGVPDRFSGSGSGTDFTLKISRVEAEDLGVYFCSQSTHVPFTFGSGTKLEIKR
notes: as for B7
B10: binds (canine CD20 ECD2 peptide [7]).

B11: 1E4-cIgGB with N33 to V substitution in VL (antibody, V domains shown)
VH: EVQLVESGGGLVKPGGSLKLSCAASGFTFSDYGMLWVRQAPEKGLEWIAYISSGSSTIYYADRVKGRFTISRDNAKNTLFLQMTSLRSEDTAMYYCSTGTFAYWGQGTPVTVSS
VL: DVVMTQNPLSLPVSLGDQASISCRSSQSLIYNVGNTYLHWYRQKPGQSPKLLIYKVSNRFSGVPDRFSGSGSGTDFTLKISRVEAEDLGVYFCSQSTHVPFTFGSGTKLEIKR
notes: as for B7
B11: binds (canine CD20 ECD2 peptide [7]).

B12: 1E4-cIgGB with N33 to Y substitution in VL (antibody, V domains shown)
VH: EVQLVESGGGLVKPGGSLKLSCAASGFTFSDYGMLWVRQAPEKGLEWIAYISSGSSTIYYADRVKGRFTISRDNAKNTLFLQMTSLRSEDTAMYYCSTGTFAYWGQGTPVTVSS
VL: DVVMTQNPLSLPVSLGDQASISCRSSQSLIYNYGNTYLHWYRQKPGQSPKLLIYKVSNRFSGVPDRFSGSGSGTDFTLKISRVEAEDLGVYFCSQSTHVPFTFGSGTKLEIKR
notes: as for B7
B12: binds (canine CD20 ECD2 peptide [7]).

B13: mouse monoclonal antibody 1E4 (antibody, V domains shown)
VH: EVQLVESGGGLVKPGGSLKLSCAASGFTFSDYGMLWVRQAPEKGLEWIAYISSGSSTIYYADRVKGRFTISRDNAKNTLFLQMTSLRSEDTAMYYCSTGTFAYWGQGTPVTVSS
VL: DVVMTQNPLSLPVSLGDQASISCRSSQSLIYNNGNTYLHWYRQKPGQSPKLLIYKVSNRFSGVPDRFSGSGSGTDFTLKISRVEAEDLGVYFCSQSTHVPFTFGSGTKLEIK
notes: Mouse monoclonal antibody from a hybridoma; also called 1E4-mAb; hybridoma antibody 1E4
For B13, the binding result [1] was “binds”, the binding result [2] was “binds” and the Kd [3] was 0.97 nM.
